In the series the test system is Escherichia coli TOP10. Put plainly: shrunken log2 fold change of peptide-encoding DNA abundance (4.5 h post-induction vs induction); higher = less antimicrobial activity (less host growth inhibition). As to conditions: time post-induction: 4.5 h; library: site-saturation at positions 5, 18, 19, 20.
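Note: peptides expressed intracellularly from a pBAD plasmid library in pooled LB shake-flask culture, induced with 0.3% L-arabinose, DNA abundance read by NGS, three biological replicates, DESeq2 with apeglm shrinkage.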

Turning to RRIRKRPPRLPRPRPRPKFEPRP, the “shrunken log2 fold change” value was -0.0585.

For RRIRLRPPRLPRPRPRPERHPRP, the “shrunken log2 fold change” value is 0.27.

Turning to RRIRKRPPRLPRPRPRPWVGPRP, the “shrunken log2 fold change” value turned out to be 0.0422.

On to RRIRTRPPRLPRPRPRPPCWPRP, for which the “shrunken log2 fold change” value stood at 0.171.

Turning to RRIRRRPPRLPRPRPRPIVHPRP, the “shrunken log2 fold change” value is -0.0757.

Take RRIRKRPPRLPRPRPRPQNAPRP: the “shrunken log2 fold change” value is -0.0942.

For RRIRARPPRLPRPRPRPAFEPRP, the “shrunken log2 fold change” value stood at 0.702.

On to RRIRYRPPRLPRPRPRPSMIPRP, for which the “shrunken log2 fold change” value was -0.77.

On to RRIRDRPPRLPRPRPRPSGNPRP, for which the “shrunken log2 fold change” value was 0.499.

On to RRIRKRPPRLPRPRPRPQTHPRP, for which the “shrunken log2 fold change” value was found to be 0.372.

For the sequence RRIRNRPPRLPRPRPRPHDTPRP, the “shrunken log2 fold change” value is -0.267.

For the sequence RRIRPRPPRLPRPRPRPTWPPRP, the “shrunken log2 fold change” value is 0.47.

On to RRIRKRPPRLPRPRPRPHFWPRP, for which the “shrunken log2 fold change” value is 0.188.

As to RRIRFRPPRLPRPRPRPCRNPRP, the “shrunken log2 fold change” value was -0.0376.

Consider RRIRLRPPRLPRPRPRPQVPPRP, for which the “shrunken log2 fold change” value was -0.0408.

In the case of RRIRIRPPRLPRPRPRPVWPPRP, the “shrunken log2 fold change” value worked out at 0.0939.

RRIRRRPPRLPRPRPRPVKAPRP: the “shrunken log2 fold change” value was found to be 0.148.

In the case of RRIRWRPPRLPRPRPRPFLHPRP, the “shrunken log2 fold change” value was -0.772.

On to RRIRPRPPRLPRPRPRPTWIPRP, for which the “shrunken log2 fold change” value was found to be 0.184.

For the sequence RRIRLRPPRLPRPRPRPQLKPRP, the “shrunken log2 fold change” value was -0.0336.

In the case of RRIRQRPPRLPRPRPRPSLTPRP, the “shrunken log2 fold change” value is 0.133.

Take RRIRWRPPRLPRPRPRPEIRPRP: the “shrunken log2 fold change” value worked out at 0.00534.

As to RRIRYRPPRLPRPRPRPNPVPRP, the “shrunken log2 fold change” value came out at 0.000723.

On to RRIRLRPPRLPRPRPRPPYKPRP, for which the “shrunken log2 fold change” value was -0.292.

Take RRIRIRPPRLPRPRPRPFLDPRP: the “shrunken log2 fold change” value was -0.888.

As for RRIRPRPPRLPRPRPRPAMPPRP, the “shrunken log2 fold change” value came out at 0.246.

Consider RRIRYRPPRLPRPRPRPRECPRP, for which the “shrunken log2 fold change” value is -0.154.

Turning to RRIRCRPPRLPRPRPRPAMMPRP, the “shrunken log2 fold change” value was -0.0414.

For the sequence RRIRKRPPRLPRPRPRPSCPPRP, the “shrunken log2 fold change” value was -0.0238.

On to RRIRCRPPRLPRPRPRPWAAPRP, for which the “shrunken log2 fold change” value is -0.0941.

On to RRIRVRPPRLPRPRPRPEVFPRP, for which the “shrunken log2 fold change” value was found to be 0.0748.

In the case of RRIRIRPPRLPRPRPRPDMYPRP, the “shrunken log2 fold change” value was -0.173.

For RRIRSRPPRLPRPRPRPYEQPRP, the “shrunken log2 fold change” value was -0.0601.

In the case of RRIRFRPPRLPRPRPRPSGVPRP, the “shrunken log2 fold change” value is 0.0832.

Turning to RRIRFRPPRLPRPRPRPQESPRP, the “shrunken log2 fold change” value came to 0.124.

In the case of RRIRWRPPRLPRPRPRPSEVPRP, the “shrunken log2 fold change” value is -0.0251.

In the case of RRIRKRPPRLPRPRPRPIEFPRP, the “shrunken log2 fold change” value was 0.0427.

Consider RRIRLRPPRLPRPRPRPQNFPRP, for which the “shrunken log2 fold change” value was found to be 0.0254.

With RRIRGRPPRLPRPRPRPSAGPRP, the “shrunken log2 fold change” value was found to be 1.09.

Consider RRIRCRPPRLPRPRPRPTKFPRP, for which the “shrunken log2 fold change” value is -0.305.

For the sequence RRIRPRPPRLPRPRPRPGTRPRP, the “shrunken log2 fold change” value is 0.134.

Turning to RRIRDRPPRLPRPRPRPKTRPRP, the “shrunken log2 fold change” value worked out at 0.533.

In the case of RRIRSRPPRLPRPRPRPVWLPRP, the “shrunken log2 fold change” value is -0.388.

As to RRIRWRPPRLPRPRPRPIFAPRP, the “shrunken log2 fold change” value stood at 0.329.

As to RRIRRRPPRLPRPRPRPDNNPRP, the “shrunken log2 fold change” value was -0.187.

On to RRIRDRPPRLPRPRPRPDKDPRP, for which the “shrunken log2 fold change” value is 0.0428.

For the sequence RRIRNRPPRLPRPRPRPPNQPRP, the “shrunken log2 fold change” value is -0.0523.

Take RRIRLRPPRLPRPRPRPRHIPRP: the “shrunken log2 fold change” value worked out at 1.19.

For RRIRTRPPRLPRPRPRPDIMPRP, the “shrunken log2 fold change” value is -0.624.

For RRIRWRPPRLPRPRPRPGVCPRP, the “shrunken log2 fold change” value was 0.681.

For the sequence RRIRDRPPRLPRPRPRPQREPRP, the “shrunken log2 fold change” value was -0.0375.

For RRIRWRPPRLPRPRPRPCYMPRP, the “shrunken log2 fold change” value was -0.282.

In the case of RRIRVRPPRLPRPRPRPETHPRP, the “shrunken log2 fold change” value is -0.0797.

Regarding RRIRMRPPRLPRPRPRPCYAPRP, the “shrunken log2 fold change” value was -0.105.

On to RRIRDRPPRLPRPRPRPMSPPRP, for which the “shrunken log2 fold change” value amounted to 0.0807.

As for RRIRQRPPRLPRPRPRPELNPRP, the “shrunken log2 fold change” value was 0.0915.

Regarding RRIRWRPPRLPRPRPRPTIRPRP, the “shrunken log2 fold change” value is -0.343.

With RRIRHRPPRLPRPRPRPPYFPRP, the “shrunken log2 fold change” value is -0.366.

In the case of RRIRTRPPRLPRPRPRPPTCPRP, the “shrunken log2 fold change” value was 0.174.

Regarding RRIRRRPPRLPRPRPRPHWCPRP, the “shrunken log2 fold change” value is 0.0137.

Take RRIRIRPPRLPRPRPRPYIVPRP: the “shrunken log2 fold change” value was -0.0153.

In the case of RRIRDRPPRLPRPRPRPYRSPRP, the “shrunken log2 fold change” value is -0.142.

For the sequence RRIRVRPPRLPRPRPRPPIVPRP, the “shrunken log2 fold change” value is 0.0432.

RRIRTRPPRLPRPRPRPTWAPRP: the “shrunken log2 fold change” value was -0.117.

For the sequence RRIRGRPPRLPRPRPRPMENPRP, the “shrunken log2 fold change” value was determined as 0.47.

On to RRIRARPPRLPRPRPRPQASPRP, for which the “shrunken log2 fold change” value was 0.242.

Take RRIRDRPPRLPRPRPRPEVFPRP: the “shrunken log2 fold change” value was 0.443.

For RRIRKRPPRLPRPRPRPMRIPRP, the “shrunken log2 fold change” value was 0.34.

Regarding RRIRLRPPRLPRPRPRPQQHPRP, the “shrunken log2 fold change” value was -0.212.

In the case of RRIRFRPPRLPRPRPRPRDGPRP, the “shrunken log2 fold change” value is 1.36.

Take RRIRVRPPRLPRPRPRPIFWPRP: the “shrunken log2 fold change” value stood at 0.00106.

As for RRIRWRPPRLPRPRPRPSRCPRP, the “shrunken log2 fold change” value stood at 0.0613.

RRIRFRPPRLPRPRPRPSEVPRP: the “shrunken log2 fold change” value is -0.0167.

Consider RRIRNRPPRLPRPRPRPWGFPRP, for which the “shrunken log2 fold change” value is -0.103.

Regarding RRIRNRPPRLPRPRPRPFCWPRP, the “shrunken log2 fold change” value worked out at 0.0104.

For RRIRLRPPRLPRPRPRPNTKPRP, the “shrunken log2 fold change” value was -0.543.

As for RRIRVRPPRLPRPRPRPWIPPRP, the “shrunken log2 fold change” value was -0.513.

Turning to RRIRYRPPRLPRPRPRPRADPRP, the “shrunken log2 fold change” value was found to be 0.0349.

For RRIRERPPRLPRPRPRPVHHPRP, the “shrunken log2 fold change” value is -0.954.

Consider RRIRWRPPRLPRPRPRPKLAPRP, for which the “shrunken log2 fold change” value was determined as 1.03.

For the sequence RRIRERPPRLPRPRPRPSWFPRP, the “shrunken log2 fold change” value is -0.589.

Regarding RRIRCRPPRLPRPRPRPKDIPRP, the “shrunken log2 fold change” value was -0.0796.

Consider RRIRKRPPRLPRPRPRPKPRPRP, for which the “shrunken log2 fold change” value turned out to be 1.06.

Consider RRIRFRPPRLPRPRPRPHHRPRP, for which the “shrunken log2 fold change” value was -0.401.

Take RRIRGRPPRLPRPRPRPHDMPRP: the “shrunken log2 fold change” value is -0.204.

For RRIRHRPPRLPRPRPRPNKGPRP, the “shrunken log2 fold change” value was -0.174.

For the sequence RRIRFRPPRLPRPRPRPPYKPRP, the “shrunken log2 fold change” value was -0.279.

For the sequence RRIRARPPRLPRPRPRPCCCPRP, the “shrunken log2 fold change” value was 0.689.

Take RRIRHRPPRLPRPRPRPKTTPRP: the “shrunken log2 fold change” value was -0.052.

RRIRVRPPRLPRPRPRPWSAPRP: the “shrunken log2 fold change” value was -0.135.

For the sequence RRIRDRPPRLPRPRPRPRRAPRP, the “shrunken log2 fold change” value was determined as 0.691.

On to RRIRMRPPRLPRPRPRPDQAPRP, for which the “shrunken log2 fold change” value was determined as 0.357.

For the sequence RRIRLRPPRLPRPRPRPMKLPRP, the “shrunken log2 fold change” value is -0.187.

For the sequence RRIRFRPPRLPRPRPRPKFWPRP, the “shrunken log2 fold change” value stood at 0.265.

As for RRIRNRPPRLPRPRPRPYIPPRP, the “shrunken log2 fold change” value was -0.36.

For RRIRVRPPRLPRPRPRPKLYPRP, the “shrunken log2 fold change” value is -0.0874.

Turning to RRIRFRPPRLPRPRPRPGWSPRP, the “shrunken log2 fold change” value came out at 0.114.

For the sequence RRIRYRPPRLPRPRPRPEPWPRP, the “shrunken log2 fold change” value was 0.00405.

On to RRIRDRPPRLPRPRPRPITAPRP, for which the “shrunken log2 fold change” value is -0.283.

In the case of RRIRTRPPRLPRPRPRPADQPRP, the “shrunken log2 fold change” value is -0.0202.

On to RRIRERPPRLPRPRPRPKMCPRP, for which the “shrunken log2 fold change” value is -0.149.

Turning to RRIRSRPPRLPRPRPRPDHKPRP, the “shrunken log2 fold change” value was -0.18.

With RRIRNRPPRLPRPRPRPLAAPRP, the “shrunken log2 fold change” value came out at 0.568.

As to RRIRFRPPRLPRPRPRPTQNPRP, the “shrunken log2 fold change” value stood at 0.541.

In the case of RRIRKRPPRLPRPRPRPCTTPRP, the “shrunken log2 fold change” value is -0.132.

In the case of RRIRCRPPRLPRPRPRPAEQPRP, the “shrunken log2 fold change” value came to 0.252.

As for RRIRTRPPRLPRPRPRPRVNPRP, the “shrunken log2 fold change” value turned out to be 0.0441.

For the sequence RRIRGRPPRLPRPRPRPYVIPRP, the “shrunken log2 fold change” value was -0.0899.

As to RRIRPRPPRLPRPRPRPDLHPRP, the “shrunken log2 fold change” value is -0.316.

For the sequence RRIRIRPPRLPRPRPRPWGGPRP, the “shrunken log2 fold change” value turned out to be 0.297.

Regarding RRIRARPPRLPRPRPRPKIAPRP, the “shrunken log2 fold change” value was 0.177.

On to RRIRLRPPRLPRPRPRPMGQPRP, for which the “shrunken log2 fold change” value is 0.0212.

Consider RRIRQRPPRLPRPRPRPIYCPRP, for which the “shrunken log2 fold change” value is -0.0315.

RRIRNRPPRLPRPRPRPYFLPRP: the “shrunken log2 fold change” value is -0.897.

In the case of RRIRGRPPRLPRPRPRPVLLPRP, the “shrunken log2 fold change” value was 0.122.

With RRIRHRPPRLPRPRPRPVVFPRP, the “shrunken log2 fold change” value is -0.147.

For RRIRCRPPRLPRPRPRPEDFPRP, the “shrunken log2 fold change” value is -0.198.

On to RRIRHRPPRLPRPRPRPSIFPRP, for which the “shrunken log2 fold change” value was -0.704.

RRIRMRPPRLPRPRPRPAHCPRP: the “shrunken log2 fold change” value came out at 0.352.

In the case of RRIRVRPPRLPRPRPRPYGWPRP, the “shrunken log2 fold change” value was -0.0905.

On to RRIRSRPPRLPRPRPRPHEMPRP, for which the “shrunken log2 fold change” value was determined as 0.0637.

Consider RRIRFRPPRLPRPRPRPQYKPRP, for which the “shrunken log2 fold change” value was -0.755.

In the case of RRIRQRPPRLPRPRPRPMMQPRP, the “shrunken log2 fold change” value was -0.313.

In the case of RRIRIRPPRLPRPRPRPYEGPRP, the “shrunken log2 fold change” value is -0.00931.

Consider RRIRARPPRLPRPRPRPVEFPRP, for which the “shrunken log2 fold change” value stood at 0.108.

These data come from the supplement of paper PMC9112550, “Optimization of the antimicrobial peptide Bac7 by deep mutational scanning” (BMC Biology, 2022).
